In patent US20160237419:

Assays:
[1] = molecular target: human wild type trypsinogen-1 (PRSS1 wt)
[2] = molecular target: T1, supercharged variant of human trypsinogen-1 (PRSS1 sc)
T1 chain: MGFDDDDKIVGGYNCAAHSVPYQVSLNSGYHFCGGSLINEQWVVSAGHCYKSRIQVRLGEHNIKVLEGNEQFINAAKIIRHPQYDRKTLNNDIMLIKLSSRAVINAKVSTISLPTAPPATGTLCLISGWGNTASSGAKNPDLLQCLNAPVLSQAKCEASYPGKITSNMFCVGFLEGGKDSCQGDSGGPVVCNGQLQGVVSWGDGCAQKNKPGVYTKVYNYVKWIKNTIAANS

B1: human enteropeptidase light chain sc C112S (hEPI-sc-C112S) (protein)
chain: IVGGSDAKEGAWPWVVGLYYDDRLLCGASLVSSDWLVSAAHCVYGRNLEPSKWTAILGLHMKSNLTSPQTVPRLIDEIVINPHYNRRRKDNDIAMMHLEFKVNYTDYIQPISLPEENQVFPPGRNCSIAGWGTVVYQGTTADILQEADVPLLSNERCQQQMPEYNITENMICAGYEEGGIDSCQGDSGGPLMCQENNRWFLAGVTSFGYECALPNRPGVYARVSRFTEWIQSFLH
[1]
  activation of trypsinogen by enteropeptidase (trypsin activity on CBZ-GPR-pNA; fluorescence of FRET peptide 7): Both PRSS1 versions can be activated to similar levels
[2]
  activation of trypsinogen by enteropeptidase (trypsin activity on CBZ-GPR-pNA; fluorescence of FRET peptide 7): Both PRSS1 versions can be activated to similar levels, although PRSS1 sc shows a slightly slower activation profile
